Assay results: the supplement of paper PMC10567573

B1: ARL6IP1 (parent)
chain: YLDPSVLSGVSCFVMFLCLADYLV

Variants of: B1
Experiment: protein stability index of a GFP-peptide fusion (GPS, HEK-293T) (PSI 1-6); higher = more stable
Settings: c terminus: a fixed tail appended
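Also: lentivirally expressed fusions sorted by FACS into six bins by GFP to DsRed ratio, PSI derived from sequencing read proportions per bin multiplied by bin number.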

Variant	protein stability index
YLDPSVLSGVSQFVMFLCLADYLV [C12Q]	4.12
YLDPSVLSGVSDFVMFLCLADYLV [C12D]	3.35
YLDPSVLSGVSWFVMFLCLADYLV [C12W]	2.26
YLDPSVLSGVSGFVMFLCLADYLV [C12G]	3.53
YLDPSVLSGVSLFVMFLCLADYLV [C12L]	2.45
YLDPSVLSGVSCFVMFLCLYDYLV [A20Y]	3.24
YLDPSVLSGVSCFVMFLCLFDYLV [A20F]	2.87
YLDPSVLSGVSCFVMFLCLNDYLV [A20N]	3.34
YLDPSVLSGVSCFVMFLCLWDYLV [A20W]	2.47
YLDPSVLSGVSCFVMFLCLIDYLV [A20I]	1.85
YLDPSVLSGVSCFVMFLCLKDYLV [A20K]	3.71
YLDPSVLSGVSCFVMFLCLCDYLV [A20C]	3.26
YLDPSVLSGVSCFVMFLCLTDYLV [A20T]	4.15
YLDPSVLSGVSCFVMFLCLVDYLV [A20V]	1.63
YLDPSVLSGVSCFVMFLCLHDYLV [A20H]	2.64
YLDPSVLSGVSCFVMPLCLADYLV [F16P]	2.64
YLDPSVLSGVSCFVMWLCLADYLV [F16W]	2.85
YLDPSVLSGVSCFVMALCLADYLV [F16A]	1.99
YLDPSVLSGVSCFVMRLCLADYLV [F16R]	3.63
YLDPSVLSGVSCFVMVLCLADYLV [F16V]	3.72
YLDPSVLSGVSCFVMKLCLADYLV [F16K]	1.74
YLDPSVLSGVSCFVMLLCLADYLV [F16L]	2.62
YLDPSVLSGVSCFVMNLCLADYLV [F16N]	2.88
YLDPSVLSGVSCFVMGLCLADYLV [F16G]	2.14

Variant	protein stability index
YLDPSVNSGVSCFVMFLCLADYLV [L7N]	2.74
YLDPSVYSGVSCFVMFLCLADYLV [L7Y]	2.89
YLDPSVSSGVSCFVMFLCLADYLV [L7S]	3.62
YLDPSVMSGVSCFVMFLCLADYLV [L7M]	2.98
YLDPSVTSGVSCFVMFLCLADYLV [L7T]	2.8
YLDPSVVSGVSCFVMFLCLADYLV [L7V]	3.69
YLDPSVCSGVSCFVMFLCLADYLV [L7C]	1.88
YLDPSVQSGVSCFVMFLCLADYLV [L7Q]	4
YLDPSVHSGVSCFVMFLCLADYLV [L7H]	3.82
YLDPSVPSGVSCFVMFLCLADYLV [L7P]	2.4
YLDPSVASGVSCFVMFLCLADYLV [L7A]	3.11
YLDPSVLSGVSCFVTFLCLADYLV [M15T]	3.04
YLDPSVLSGVSCFVHFLCLADYLV [M15H]	3.49
YLDPSVLSGVSCFVCFLCLADYLV [M15C]	3.3
YLDPSVLSGVSCFVNFLCLADYLV [M15N]	2.88
YLDPSVLSGVSCFVGFLCLADYLV [M15G]	4.04
YLDPSVLSGVSCFVSFLCLADYLV [M15S]	2.79
YLDPSVLSGVSCFVRFLCLADYLV [M15R]	2.59
YLDPSVLSGVSCFVKFLCLADYLV [M15K]	3.66
YLDPSVLSGVSCFVWFLCLADYLV [M15W]	2.93
YLDPSVLSGVSCFVLFLCLADYLV [M15L]	2.76
YLDPSVLSGVSCFVVFLCLADYLV [M15V]	2.38
YLDPSVLSGVSCFVDFLCLADYLV [M15D]	2.69
YLDPSVLSGVSCFVFFLCLADYLV [M15F]	2.3

Variant	protein stability index
YLDPSVLSGVSCFVIFLCLADYLV [M15I]	4.76
YLDPPVLSGVSCFVMFLCLADYLV [S5P]	3.19
YLDPMVLSGVSCFVMFLCLADYLV [S5M]	3.03
YLDPRVLSGVSCFVMFLCLADYLV [S5R]	3.56
YLDPKVLSGVSCFVMFLCLADYLV [S5K]	3.47
YLDPIVLSGVSCFVMFLCLADYLV [S5I]	3.61
YLDPNVLSGVSCFVMFLCLADYLV [S5N]	2.26
YLDPLVLSGVSCFVMFLCLADYLV [S5L]	3.09
YLDPSVLSSVSCFVMFLCLADYLV [G9S]	2.12
YLDPSVLSEVSCFVMFLCLADYLV [G9E]	2.77
YLDPSVLSVVSCFVMFLCLADYLV [G9V]	3.3
YLDPSVLSRVSCFVMFLCLADYLV [G9R]	2.5
YLDPSVLSYVSCFVMFLCLADYLV [G9Y]	2.81
YLDPSVLSLVSCFVMFLCLADYLV [G9L]	3.4
YLDPSVLSAVSCFVMFLCLADYLV [G9A]	3.74
YLDPSVLSKVSCFVMFLCLADYLV [G9K]	2.49
YLDPSVLSPVSCFVMFLCLADYLV [G9P]	2.66
YLDPSVLSHVSCFVMFLCLADYLV [G9H]	3.27
YLDPSVLSTVSCFVMFLCLADYLV [G9T]	3.03
YLDPSVLSFVSCFVMFLCLADYLV [G9F]	3.27
YLDPSVLSNVSCFVMFLCLADYLV [G9N]	4.26
YLDPSVLSQVSCFVMFLCLADYLV [G9Q]	3.72
YLDPSVLSGVSCFMMFLCLADYLV [V14M]	3.79
YLDPSVLSGVSCFKMFLCLADYLV [V14K]	1.98

Variant	protein stability index
YLDPSVLSGVSCFSMFLCLADYLV [V14S]	2.83
YLDPSVLSGVSCFAMFLCLADYLV [V14A]	2.62
YLDPSVLSGVSCFTMFLCLADYLV [V14T]	2.04
YLDPSVLSGVSCFWMFLCLADYLV [V14W]	2.15
YLDPSVLSGVSCFHMFLCLADYLV [V14H]	2.06
YLDPSVLSGVSCFFMFLCLADYLV [V14F]	2.09
YLDPSVLSGVSCFRMFLCLADYLV [V14R]	1.65
YLDPSVLSGVSCFLMFLCLADYLV [V14L]	2.1
YLDPSVLSGVSCFGMFLCLADYLV [V14G]	2.85
YLDPSVLSGVSCFPMFLCLADYLV [V14P]	3.67
YLDPSVLSGVSCFEMFLCLADYLV [V14E]	2.54
YLDPSTLSGVSCFVMFLCLADYLV [V6T]	2.39
YLDPSYLSGVSCFVMFLCLADYLV [V6Y]	2.66
YLDPSRLSGVSCFVMFLCLADYLV [V6R]	2.76
YLDPSILSGVSCFVMFLCLADYLV [V6I]	3.23
YLDPSSLSGVSCFVMFLCLADYLV [V6S]	2.79
YLDPSDLSGVSCFVMFLCLADYLV [V6D]	2.36
YLDPSALSGVSCFVMFLCLADYLV [V6A]	1.44
YLDPSCLSGVSCFVMFLCLADYLV [V6C]	3.38
YLDPSQLSGVSCFVMFLCLADYLV [V6Q]	2.64
YLDPSNLSGVSCFVMFLCLADYLV [V6N]	3.08
YLDPSKLSGVSCFVMFLCLADYLV [V6K]	2.51
